{"source": "patent US20130115256A1", "about": "“METHODS FOR TREATING OR PREVENTING VASCULAR GRAFT FAILURE” (priority 2010, published 2013)", "binders": {"B1": {"name": "MMI-0100 (…; SEQ ID NO: 1) (peptide)", "peptide": "YARAAARQARAKALARQLGVAA", "modifications": "not fully specified (C-terminus)"}}, "molecular_target": "mitogen-activated protein kinase-activated protein kinase 2 (MK2), P49137", "sequence (P49137 46-400)": "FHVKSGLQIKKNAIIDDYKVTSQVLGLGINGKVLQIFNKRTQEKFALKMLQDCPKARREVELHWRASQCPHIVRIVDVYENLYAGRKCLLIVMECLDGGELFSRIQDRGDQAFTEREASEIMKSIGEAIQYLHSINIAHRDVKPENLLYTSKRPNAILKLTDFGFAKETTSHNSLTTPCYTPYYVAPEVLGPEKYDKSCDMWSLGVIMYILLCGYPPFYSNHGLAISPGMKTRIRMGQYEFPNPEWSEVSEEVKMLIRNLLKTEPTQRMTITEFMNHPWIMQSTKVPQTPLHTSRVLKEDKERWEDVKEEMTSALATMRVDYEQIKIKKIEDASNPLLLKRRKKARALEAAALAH", "test": "cell-based or functional assay", "note": "Where no end group is shown, it is not given here.", "data": [{"binder": "B1", "values": [{"measurement": "Percent Activity (radiometric kinase assay, peptide at 100 µM)", "result": "< 5", "unit": "% activity"}]}]}
